According to patent US20210324094A1 (MOGAM INSTITUTE FOR BIOMEDICAL RESEARCH, published 2021):

What was measured:
Human IR = molecular target: T1, Human IR (human, UniProt P06213 28-956, limits assumed); test: SPR, IR immobilised on CM5 chip, IR739 flowed, pH 7.0
T1 construct: the natural receptor is processed into alpha and beta chains; also called human insulin receptor
Description: (§1) Human IR or mouse IR at 1 μg/ml was immobilized with acetate (pH 4.0) on a CM5 sensor chip. […] For measurement conditions, a flow rate was set as 30 μl/min, and an association time and a dissociation time were set as 120 seconds and 600 seconds, respectively. For regeneration, 10 mM glycine-HCl (pH 1.5) was flowed for 30 seconds.

Mouse IR = molecular target: T2, Mouse IR (mouse, UniProt P15208 28-946, limits assumed); test: as above
T2 construct: also called mouse insulin receptor
Description: as §1

B1: IR739 (antibody, human IgG1, kappa, V domains shown)
VH: EVQLVESGGGLVQPGGSLRLSCAASGFTFSSYYMSWVRQAPGKGLEWVSAISYGGSSTYYADSVKGRFTISRDNSKNTLYLQMNSLRAEDTAVYYCARHPSYGTVNHAYFDVWGQGTLVTVSS
VL: DIQMTQSPSSLSASVGDRVTITCGASRDVSSYLAWYQQKPGKAPKLLIYDANILQSGVPSRFSGSGSGTDFTLTISSLQPEDFATYYCLEYNNLPLTFGQGTKVEIKR
notes: Conventional IgG from a human synthetic scFv library; also called IR739 antibody; anti-IR antibody
Human IR
  Kd: 15 nM
  koff: 0.00144 s⁻¹
  kon: 96000 M⁻¹ s⁻¹
Mouse IR
  Kd: 6.4 nM
  koff: 0.00061 s⁻¹
  kon: 95300 M⁻¹ s⁻¹
